Data: patent publication US20160237160A1 (Bayer, published 2016)
Each block holds one binder with its values, some of them ahead of it.

Assays:
[1] = biological target: T1, RELT (TNFRSF19L) Fc fusion protein (Human, UniProt Q969Z4 26-162); experiment: ELISA, Fc fusion protein coated at 1 µg/ml, TPP-2090 at 75 nM, Amplex Red;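 note: binding reported as ELISA signal intensity in Rfu against a panel of TNF receptor superfamily members presented as Fc fusion proteins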
T1 construct: extracellular domain; bought
T1 sequence (looked up): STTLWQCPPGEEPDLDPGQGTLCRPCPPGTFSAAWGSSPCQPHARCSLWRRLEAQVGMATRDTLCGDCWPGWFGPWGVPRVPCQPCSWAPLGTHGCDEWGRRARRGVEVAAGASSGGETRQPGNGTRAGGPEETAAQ
Source text: (§1) Shown is the result of an ELISA: Y is “ELISA signal intensity [Rfu]”; X are “TNF receptor superfamily proteins tested (Fc-fusion proteins)”: 1 is “TWEAKR”; 2 is “TWEAKR”; 3 is “Apo-3”; 4 is “Trail-R1”; 5 is “Trail-R2”; 6 is “CD385”; 7 is “CD95”; 8 is “Rank”; 9 is “TNF-R1”; 10 is “TNF-R2”; 11 is “BAFF-R”; 12 is “DcR3”; 13 is “BCMA”; 14 is “TACI”; 15 is “OX40”; 16 is “CD30”; 17 is “CD27”; 18 is “CD40”; 19 is “Osteoprotegerin”; 20 is “EDAR”; 21 is “GITR”; 22 is “HVEM”; 23 is “NGF R”; 24 is “Trail R3”; 25 is “Lymphotioxin B R”; 26 is “Trail R4”; 27 is “EDA2R”; 28 is “TROY”; 29 is “RELT”; 30 is “4-1BB”.
(§2) To collect dose-response data a serial 3fold dilution of biotinylated IgG starting with a concentration of 2 μM was used as soluble binding partner. Detection was done with anti-hIgG1-HRP and Amplex Red.

[2] = biological target: T2, CD27 (TNFRSF7) Fc fusion protein (Human, UniProt P26842 20-191); experiment: as above
T2 construct: extracellular domain; bought
Source text: as §1, §2

[3] = biological target: T3, Trail-R2 (TNFRSF10B) Fc fusion protein (Human, UniProt O14763 56-210); experiment: as above
T3 construct: extracellular domain; bought
Source text: as §1, §2

[4] = biological target: T4, 4-1BB (TNFRSF9) Fc fusion protein (Human, UniProt Q07011 24-186); experiment: as above
T4 construct: extracellular domain; bought
Source text: as §1, §2

[5] = biological target: T5, GITR (TNFRSF18) Fc fusion protein (Human, UniProt Q9Y5U5 26-162); experiment: as above
T5 construct: extracellular domain; bought
T5 sequence (looked up): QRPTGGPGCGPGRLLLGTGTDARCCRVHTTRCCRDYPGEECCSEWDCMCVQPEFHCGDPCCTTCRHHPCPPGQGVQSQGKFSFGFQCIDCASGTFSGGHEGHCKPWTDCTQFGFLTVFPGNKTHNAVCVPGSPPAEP
Source text: as §1, §2

[6] = biological target: T6, Osteoprotegerin (TNFRSF11B) Fc fusion protein (Human, UniProt O00300 22-194, limits assumed); experiment: as above
T6 construct: extracellular domain; bought
T6 sequence (looked up): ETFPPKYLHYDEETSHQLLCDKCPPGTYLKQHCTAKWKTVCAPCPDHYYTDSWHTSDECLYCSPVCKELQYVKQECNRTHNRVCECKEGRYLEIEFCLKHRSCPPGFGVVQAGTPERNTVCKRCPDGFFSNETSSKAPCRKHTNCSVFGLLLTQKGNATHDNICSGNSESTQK
Source text: as §1, §2

[7] = biological target: T7, TACI (TNFRSF13B) Fc fusion protein (Human, UniProt O14836 1-165); experiment: as above
T7 construct: extracellular domain; bought
T7 sequence (looked up): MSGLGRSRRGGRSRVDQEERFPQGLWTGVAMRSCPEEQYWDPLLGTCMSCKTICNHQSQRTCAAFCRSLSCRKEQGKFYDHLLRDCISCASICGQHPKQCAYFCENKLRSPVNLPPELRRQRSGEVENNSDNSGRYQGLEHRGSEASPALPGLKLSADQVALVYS
Source text: as §1, §2

[8] = biological target: T8, OX40 (TNFRSF4) Fc fusion protein (Human, UniProt P43489 29-214); experiment: as above
T8 construct: extracellular domain; bought
T8 sequence (looked up): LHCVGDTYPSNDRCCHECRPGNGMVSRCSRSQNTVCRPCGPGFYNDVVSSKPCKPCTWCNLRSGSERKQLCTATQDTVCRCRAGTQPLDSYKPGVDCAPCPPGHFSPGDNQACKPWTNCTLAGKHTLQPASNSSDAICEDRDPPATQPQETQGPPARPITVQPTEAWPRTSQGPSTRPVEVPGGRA
Source text: as §1, §2

[9] = biological target: T9, Lymphotioxin β R Fc fusion protein (Human, UniProt P36941 31-227); experiment: as above
T9 construct: extracellular domain; bought; also called Lymphotioxin B R
Source text: as §1, §2

[10] = biological target: TWEAKR (TNFRSF12A, FN14), human, on tumor cell lines (human, UniProt Q9NP84 28-129); experiment: cell-based or functional assay
[11] = biological target: T10, TPP-2612 (TweakR-ECD-34-68-hIgGFc-His-S43A) (human); experiment: ELISA, IgG coated 1 ug/ml, HEK293 supernatant titrated
T10 construct: used as HEK293 supernatant
Procedure: (§3) These TWEAKR(34-68)-Fc muteins were expressed in HEK293 cells. To collect dose-response data, IgGs were coated at a concentration of 1 μg/ml in a 384-well Maxisorp ELISA plate and a serial 2fold dilution of the TWEAKR mutein containing supernatant was used as soluble binding partner. Detection was done with anti-HIS-HRP and Amplex Red.

[12] = biological target: T11, TPP-2618 (TweakR-ECD-34-68-hIgGFc-His-R56A) (human); experiment: as above
T11 construct: used as HEK293 supernatant
Procedure: as §3

[13] = biological target: T12, TPP-2616 (TweakR-ECD-34-68-hIgGFc-His-D51A) (human); experiment: as above
T12 construct: used as HEK293 supernatant
Procedure: as §3

[14] = biological target: T13, TPP-2623 (TweakR-ECD-34-68-hIgGFc-His-D62A) (human); experiment: as above
T13 construct: used as HEK293 supernatant
Procedure: as §3

[15] = biological target: T14, TPP-2611 (TweakR-ECD-34-68-hIgGFc-His-W42A) (human); experiment: as above
T14 construct: used as HEK293 supernatant; also called W42A (34-68 construct)
Procedure: as §3

[16] = biological target: TPP-2610 (TweakR-ECD-34-68-hIgGFc-His-S41A) (human); experiment: as above
Procedure: as §3

[17] = biological target: T15, TPP-2624 (TweakR-ECD-34-68-hIgGFc-His-F63A) (human); experiment: as above
T15 construct: used as HEK293 supernatant
Procedure: as §3

[18] = biological target: T16, TPP-2622 (TweakR-ECD-34-68-hIgGFc-His-S61A) (human); experiment: as above
T16 construct: used as HEK293 supernatant
Procedure: as §3

T9 sequence (P36941 31-227): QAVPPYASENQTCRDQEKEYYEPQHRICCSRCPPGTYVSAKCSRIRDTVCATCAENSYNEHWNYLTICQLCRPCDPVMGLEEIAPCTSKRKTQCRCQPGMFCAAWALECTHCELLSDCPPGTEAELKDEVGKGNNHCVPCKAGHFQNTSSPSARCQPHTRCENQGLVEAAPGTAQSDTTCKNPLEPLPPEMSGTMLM
T4 sequence (Q07011 24-186): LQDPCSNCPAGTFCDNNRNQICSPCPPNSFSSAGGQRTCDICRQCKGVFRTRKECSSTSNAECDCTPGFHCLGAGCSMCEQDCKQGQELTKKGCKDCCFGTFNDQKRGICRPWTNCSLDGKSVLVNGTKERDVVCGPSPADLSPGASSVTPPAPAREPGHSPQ
T2 sequence (P26842 20-191): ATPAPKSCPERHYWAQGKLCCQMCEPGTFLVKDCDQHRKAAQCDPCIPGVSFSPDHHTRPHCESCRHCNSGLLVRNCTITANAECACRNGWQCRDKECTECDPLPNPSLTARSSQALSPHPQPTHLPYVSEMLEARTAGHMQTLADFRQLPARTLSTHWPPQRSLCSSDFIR

binding result [1]: no binding (tested: 75 nM)
binding result [2]: no binding (tested: 75 nM)
binding result [3]: no binding (tested: 75 nM)
binding result [4]: no binding (tested: 75 nM)
binding result [5]: no binding (tested: 75 nM)
binding result [6]: no binding (tested: 75 nM)
binding result [7]: no binding (tested: 75 nM)
binding result [8]: no binding (tested: 75 nM)
binding result [9]: no binding (tested: 75 nM)
B1: TPP-2090 (antibody, human IgG1, kappa, V domains shown)
VH: EVQLLESGGGLVQPGGSLRLSCAASGFTFSPYPMIWVRQAPGKGLEWVSYISPSGGSTHYADSVKGRFTISRDNSKNTLYLQMNSLRAEDTAVYYCARGGDTYFDYFDYWGQGTLVTVSS
VL: DIQMTQSPSSLSASVGDRVTITCRASQSISGYLNWYQQKPGKAPKLLIYQASSLQSGVPSRFSGSGSGTDFTLTISSLQPEDFATYYCQQSYTSPFITFGQGTKVEIKR
notes: Human IgG1

Fold induction of Caspase 3/7, 786-O cells, 100 ug/ml [10]: 1.1 fold
Fold induction of Caspase 3/7, A253 cells, 100 ug/ml [10]: 1.38 fold
Fold induction of Caspase 3/7, HT-29 cells, 100 ug/ml [10]: 1.49 fold
Fold induction of Caspase 3/7, NCI-H322 cells, 100 ug/ml [10]: 1.02 fold
Fold induction of Caspase 3/7, WiDr cells, 100 ug/ml [10]: 1.12 fold
binding result [11]: no binding
binding result [12]: no binding
binding result [13]: no binding
binding result [14]: no binding
binding result [15]: no binding
binding result [16]: no binding
binding result [17]: no binding
binding result [18]: no binding
B2: P4A8(TPP-1324) (antibody, human IgG1, kappa, V domains shown)
VH: QVQLVQSGAEVKKPGASVKVSCKGSGYTFTDYGMHWVRQAPGQGLEWMGVISTYNGYTNYNQKFKGRVTMTVDKSTSTAYMELRSLRSDDTAVYYCARAYYGNLYYAMDYWGQGTLVTVSS
VL: DIVLTQSPASLAVSLGQRATISCRASKSVSTSSYSYMHWYQQKPGQPPKLLIKYASNLESGVPARFSGSGSGTDFSLNIHPMEEDDTAMYFCQHSRELPFTFGGGTKLEIKR
notes: Human IgG1; variable domains from WO2009/140177 with constant region added
